Data taken from US20050158298A1.

What was measured:
[1] = system: gliadin 33mer LQLQPFPQPQLPYPQPQLPYPQPQLPYPQPQPF
[2] = biological target: gliadin 33mer …; assay: cell-based or functional assay
[3] = biological target: T1, gliadin 33mer LQLQPFPQPQLPYPQPQLPYPQPQLPYPQPQPF
T1 chain: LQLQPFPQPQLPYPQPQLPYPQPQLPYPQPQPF

[4] = biological target: T2, gliadin 14mer PQPQLPYPQPQLPY
T2 chain: PQPQLPYPQPQLPY

Chymotrypsin
digestion of the peptide [1]: Chymotrypsin alone or supplemented with ruLAP or DPPIV is not able to breakdown the peptide

Pronase
digestion of the peptide over 20 h, E/S=1/25 [2]: < 40%

B1: cytosolic leucine aminopeptidase from porcine kidney (Sigma) (protein)
chain: TKGLVLGIYSKEKEDDAPQFTSAGENFDKLVSGKLREILNISGPPLKAGKTRTFYGLHEDFSSVVVVGLGKKGAGVDDQENWHEGKENIRAAVAAGCRQIQDLEIPSVEVDPCGDAQAAAEGAVLGLYEYDELKQKKKVVVSAKLHGSGDQEAWQRGVLFASGQNLARHLMETPANEMTPTRFAEVIEKNLKSASSKTDVHIRPKSWIEEQEMGSFLSVAKGSEEPPVFLEIHYKGSPDASDPPLVFVGKGITFDSGGISIKASANMDLMRADMGGAATICSTIVSAAKLDLPINLVGLAPLCENMPSGKANKPGDVVRAKNGKTIQVDNTDAEGRLILADALCYAHTFNPKVIINAATLTGAMDIALGSGATGVFTNSSWLWNKLFEASIETGDRVWRMPLFEHYTKQIVDCQLADVNNIGKYRSAGACTAAAFLKEFVTHPKWAHLDIAGVMTNKDEVPYLRKGMAGRPTRTLIEFLLRFSQDSA
digestion of the peptide, RP-HPLC [3]: totally inactive towards the 33mer

B2: recombinant ruLAP2 produced in P. pastoris (protein)
chain: RLVGQEPFGWPFKPMVTQDDLQNKIKLKDIMAGVEKLQSFSDAHPEKNRVFGGNGHKDTVEWIYNEIKATGYYDVKKQEQVHLWSHAEAALNANGKDLKASAMSYSPPASKIMAELVVAKNNGCNATDYPANTQGKIVLVERGVCSFGEKSAQAGDAKAAGAIVYNNVPGSLAGTLGGLDKRHVPTAGLSQEDGKNLATLVASGKIDVTMNVISLFENRTTWNVIAETKGGDHNNVIMLGAHSDSVDAGPGINDNGSGSIGIMTVAKALTNFKLNNAVRFAWWTAEEFGLLGSTFYVNSLDDRELHKVKLYLNFDMIGSPNFANQIYDGDGSAYNMTGPAGSAEIEYLFEKFFDDQGIPHQPTAFTGRSDYSAFIKRNVPAGGLFTGAEVVKTPEQVKLFGGEAGVAYDKNYHRKGDTVANINKGAIFLNTRAIAYAIAEYARSLKGFPTRPKTGKRDVNPQYSKMPGGGCGHHTVFM
removal of the N-terminal residue; mass loss by ESI-MS (Ala-proNPY): the N-terminal alanine was almost totally removed (molecular mass loss of 71 amu) from proNPY | removal of N-terminal residues; mass loss by ESI-MS (Gly-Ser-proNPY): cleavage of the two N-terminal residues Gly-Ser with a theoretical loss of 144.1 amu (found 144.2) | degradation of the peptide within 4 h, RP-HPLC [3]: partial degradation (less than 50%) of the peptide within 4 h | digestion of the peptide, 37 C, 4 h, RP-HPLC and ESI-MS [4]: the 14mer is not digested with ruLAP2 within 4 h

B3: microsomal leucine aminopeptidase from porcine kidney (Sigma) (protein)
chain: KPWNRYRLPTTLLPDSYNVTLRPYLTPNADGLYIFKGKSIVRLLCQEPTDVIIIHSKKLNYTTQGHMVVLRGVGDSQVPEIDRTELVELTEYLVVHLKGSLQPGHMYEMESEFQGELADDLAGFYRSEYMEGNVKKVLATTQMQSTDARKSFPCFDEPAMKATFNITLIHPNNLTALSNMPPKGSSTPLAEDPNWSVTEFETTPVMSTYLLAYIVSEFQSVNETAQNGVLIRIWARPNAIAEGHGMYALNVTGPILNFFANHYNTSYPLPKSDQIALPDFNAGAMENWGLVTYRENALLFDPQSSSISNKERVVTVIAHELAHQWFGNLVTLAWWNDLWLNEGFASYVEYLGADHAEPTWNLKDLIVPGDVYRVMAVDALASSHPLTTPAEEVNTPAQISEMFDSISYSKGASVIRMLSNFLTEDLFKEGLASYLHAFAYQNTTYLDLWEHLQKAVDAQTSIRLPDTVRAIMDRWTLQMGFPVITVDTKTGNISQKHFLLDSESNVTRSSAFDYLWIVPISSIKNGVMQDHYWLRDVSQAQNDLFKTASDDWVLLNVNVTGYFQVNYDEDNWRMIQHQLQTNLSVIPVINRAQVIYDSFNLATAHMVPVTLALDNTLFLNGEKEYMPWQAALSSLSYFSLMFDRSEVYGPMKKYLRKQVEPLFQHFETLTKNWTERPENLMDQYSEINAISTACSNGLPQCENLAKTLFDQWMSDPENNPIHPNLRSTIYCNAIAQGGQDQWDFAWGQLQQAQLVNEADKLRSALACSNEVWLLNRYLGYTLNPDLIRKQDATSTINSIASNVIGQPLAWDFVQSNWKKLFQDYGGGSFSFSNLIQGVTRRFSSEFELQQLEQFKKNNMDVGFGSGTRALEQALEKTKANIKWVKENKEVVLNWFIEHS
digestion of the peptide, RP-HPLC and ESI-MS [3]: results only in a partial deletion of N-terminal Leu and C-terminal Phe (due to a carboxypeptidasic contaminant)
